Laboratory results from patent US12503518B2, “Heparanase-neutralizing A54 monoclonal antibody” (TECHNION RESEARCH & DEVELOPMENT FOUNDATION LIMITED, priority 2020, dated 2025).

Tested on: 4T1 breast carcinoma cells
Assay: 4T1 breast carcinoma spontaneous metastasis, orthotopic syngeneic Balb/c model
Assay type: in vivo, mouse
Description: 4T1 mouse breast carcinoma (spontaneous metastasis). Luciferase labeled 4T1 breast carcinoma cells (1×10^5/Balb/c mouse) are injected directly into the third mammary fat pad and treatment of mice (PBS control vs. mAb A54 500 μg/mouse, 3 times/week began 3 days after 4T1 cell inoculation. Mice were randomized into two groups of 6 mice, 4 days postinoculation (Day 0). On day 15 of the study the mammary fat pad including the primary tumor was excised on all mice while under 2% Isoflurane anaesthetic. Mice were treated with mAb A54 as described above and IVIS bioluminescent imaging is performed 12 and 18 days after mastectomy. At termination, mice are sacrificed and the number of overt macrometastases on the surface of the lungs was enumerated manually (Hammond et al., PLoS One 2012; 7(12):e52175).
IVIS imaging. Bioluminescent imaging of luciferase-expressing tumors is performed with a highly sensitive, cooled charge coupled device (CCD) camera mounted in a light-tight specimen box (IVIS; Xenogen Corp., Waltham, MA). Imaging is performed in real time, is non-invasive and provides quantitative data. Briefly, mice are injected intraperitoneally with D-luciferin substrate at 150 mg/kg, anesthetized and placed onto a warmed stage inside the light-tight camera box, with continuous exposure to isoflurane (EZAnesthesia, Palmer, PA). Light emitted from the bioluminescent cells is detected by the IVIS camera system with images quantified for tumor burden using a log-scale color range set at 5×10^4 to 1×10^7 and measurement of total photon counts per second (PPS) using Living Image software (Xenogen).
In subsequent studies, the effect of mAb A54 on cancer metastasis, the hallmark of heparanase activity, was investigated. A syngeneic breast carcinoma model was applied, which resembles the scenario in humans. Briefly, luciferase labeled 4T1 breast carcinoma cells (0.5×10^5) were orthotopically injected into the third mammary fat pad of Balb/c mice. Treatment of the mice (PBS control vs. mAb A54; 500 μg/mouse, 3 times/week) began 3 days after 4T1 cell inoculation. […] On day 15 of the study the mammary fat pad including the primary tumor was excised from all mice (under 2% Isoflurane anesthetic) and weighed. […] Mice were further treated with mAb A54 as described above and IVIS bioluminescent imaging was performed on day 35 (e.g., […]).

B1: mAb A54: heparanase-neutralizing murine monoclonal antibody, IgG1-Kappa; VH SEQ ID NO: 7, VL SEQ ID NO: 8; binds HBD-II of heparanase (antibody, listed as Mus musculus, V domains shown)
VH: QVQLQQSGAELAKPGASVRMSCKASGYTFTNYWMHWVKQRPGQGLEWIGYINPTTGYTEYNQKFKDKATLTADKSSSTAYMQLSSLTSEDSAVYYCARGGAGYDYDEDYAMDYWGQGTSVTVSS
VL: DIVLTQSPASLAVSLGQRATISCRASESVEYFGTSYMNWYQQKPGQPPKLLIYLASILESGIPARFSGSGSGTDFTLNIHPVEEEDAATYYCQQSNEDPYTFGGGTKLEIK
B1 was tested. Which “luciferase signal generated by the primary tumors” value (500 μg/mouse, 3 times/week, IVIS on day 12, vs PBS) did it give?
The value was “no differences in the luciferase signal”.

And the “lung metastases (IVIS signal after mastectomy)” value (500 μg/mouse, 3 times/week, IVIS on day 35, two out of 5 untreated mice developed lung metastases)?
Its value is “hardly-detected signal”.

What about the “weight of excised primary tumors” value (500 μg/mouse, 3 times/week, excised day 15, vs untreated) of the same molecule?
Its value is “no difference in weights”.

And the “inhibition of lung colonization” value (repeated experiment with similar results)?
Its value is “almost complete inhibition of lung colonization”.
